In paper PMC9927946 one finds Kd data, which are given here for two substances.

pKd: −log10 of the molar value.

The assay deals with 2P-IRS-1 (bisphosphorylated IRS-1 peptide), labeled with Cy5. As to the kind of experiment: MST; Monolith NT.115; 100 nM Cy5-labeled 2P-IRS-1, unlabeled protein serially diluted; 25 °C; n=3.

For orientation: pKd means the Kd on a negative log10 scale, so that one unit is a factor of ten. Take “NEDD8-SHP2 conjugation (SHP2 neddylated in the in vitro neddylation assay) (from UniProt Q06124 1-593; Q15843 1-76) (complex)”: the pKd was < 3.00.
Substance “SHP2 WT recombinant protein (Src homology region 2-containing protein tyrosine phosphatase 2) (from UniProt Q06124 1-593) (enzyme)” gave a negative-log Kd (pKd) of 3.33.
